# Test results as given in paper PMC3781043, “A Transcript Profiling Approach Reveals an Abscisic Acid-Specific Glycosyltransferase (UGT73C14) Induced in Developing Fiber of Ligon lintless-2 Mutant of Cotton (Gossypium hirsutum L.)” (PLoS ONE, 2013).
# B1: UGT73C14 (Gossypium hirsutum) (protein)
# chain: AQGHFVLIPFMAQGHLIPMVDIGRLLAQRGVTVTIVTTPYNAGRVQKSVARAIESGLPIRLLQLQFPGKEVGLIDGVENIDMLHSMEDLIKFVSAANKMEEAMLKLFEKLTPRPNCIISDINLFYTRKIASKFQVPKISFHGFCCFCLLCLRNIQSSKINETVTSDSEYFTVPGLTDKVEFTRVQLPLDNDGSWKEIFEPMWEADRASYGVVINTFEELESAYVKEYRKEKKAWCIGPVSLSHKDELDMAERGNKTSIDGQKCLKWLDSQQPGSVIYACLGSIGTIKCPELIELGLGLEASNKPFIWVLRGNNPTASEVYKWIRRNEFEERTKGRGLVVVGWAPQVLILSHPAIGGFLTHCGWNSIIEGISAGVPLITFPFMGDQFCNEKLAVQILKIGVNLGANKPTMLGDEKSGFILNTEHVKNAIDKLMEQGNEGKEMRKRAKELGDEANKAVEVGGSSYMNITLLIQDILQQSQEMR
# notes: about 99 kDa
# How the values were obtained:
# [1] = substrate: CC1=CC(=O)CC(C)(C)[C@@]1(O)/C=C/C(C)=C\C(=O)O; assay: HPLC-MS of ABA glucoside formed, hyperbolic regression; format: biochemical, Gossypium hirsutum; settings: 2.5 mM UDP-glucose as sugar donor, 50 mM MgCl2, 500 µM ATP, 50 mM Tris-HCl pH 8.0, 30°C
# From the text: (§1) HPLC-MS of ABA glucoside formed, hyperbolic regression on UGT73C14
# [2] = substrate: CC1=CC(=O)CC(C)(C)[C@@]1(O)/C=C/C(C)=C/C(=O)O; assay: as above; format: biochemical, Gossypium hirsutum; settings: 2.5 mM UDP-glucose as sugar donor, 50 mM MgCl2, 500 µM ATP, 50 mM Tris-HCl pH 8.0, 30°C
# From the text: as §1
protein,measurement,setting,value
B1,Km,[1],61.7 µM
same,Vmax,[1],221 µmol/min
same,kcat,[1],7.2 s⁻¹
same,kcat/Km,[1],115000 M⁻¹ s⁻¹
same,Km,[2],98.1 µM
same,Vmax,[2],82.9 µmol/min
same,kcat,[2],2.7 s⁻¹
same,kcat/Km,[2],27100 M⁻¹ s⁻¹
